One assay addresses 2F8-HG-T234A (human). As to the kind of experiment: self-association of HG half-molecules; non-covalent nano-electrospray mass spectrometry.
For assay [1], the target named is 2F8-HG-F273A (human). The assay can be described thus: self-association; non-covalent nano-electrospray mass spectrometry at 0.01-10 µM.
The target of assay [2] is 2F8-HG-F273A (human). As to the kind of experiment: self-association of HG half-molecules; non-covalent nano-electrospray mass spectrometry.
For assay [3], the target named is 2F8-HG-L236V (human). The assay can be described thus: self-association; non-covalent nano-electrospray mass spectrometry at 0.01-10 µM.
The target of assay [4] is 2F8-HG-L236V (human). As to the kind of experiment: self-association of HG half-molecules; non-covalent nano-electrospray mass spectrometry.
In another assay the target is 2F8-HG-F273L (human). Described as above.
Assay [5] concerns the target 2F8-HG-Y275A (human). The assay can be described thus: self-association; non-covalent nano-electrospray mass spectrometry at 0.01-10 µM.
In assay [6] the target is 2F8-HG-Y275A (human). The assay can be described thus: self-association of HG half-molecules; non-covalent nano-electrospray mass spectrometry.
In another assay the target is 2F8-HG-L236A (human). The description is as above.

A value given as a limit tells only on which side of the number the result lay.

B1: 2F8-HG-T234A (antibody, part only; not given: 2F8 variable domains, not shown: a dimerising Fc or GST)
heavy, part: ASTKGPSVFPLAPCSRSTSESTAALGCLVKDYFPEPVTVSWNSGALTSGVHTFPAVLQSSGLYSLSSVVTVPSSSLGTKTYTCNVDHKPSNTKVDKRVAPEFLGGPSVFLFPPKPKDTLMISRTPEVTCVVVDVSQEDPEVQFNWYVDGVEVHNAKTKPREEQFNSTYRVVSVLTVLHQDWLNGKEYKCKVSNKGLPSSIEKTISKAKGQPREPQVYTLPPSQEEMTKNQVSLACLVKGFYPSDIAVEWESNGQPENNYKTTPPVLDSDGSFFLYSRLTVDKSRWQEGNVFSCSVMHEALHNHYTQKSLSLSLGK
B1 yielded a percentage molecules present as monomers in the assay with 2F8-HG-T234A (human) above 80%.

B2: 2F8-HG-F273A (antibody, part only; not given: 2F8 variable domains, not shown: a dimerising Fc or GST)
heavy, part: ASTKGPSVFPLAPCSRSTSESTAALGCLVKDYFPEPVTVSWNSGALTSGVHTFPAVLQSSGLYSLSSVVTVPSSSLGTKTYTCNVDHKPSNTKVDKRVAPEFLGGPSVFLFPPKPKDTLMISRTPEVTCVVVDVSQEDPEVQFNWYVDGVEVHNAKTKPREEQFNSTYRVVSVLTVLHQDWLNGKEYKCKVSNKGLPSSIEKTISKAKGQPREPQVYTLPPSQEEMTKNQVSLTCLVKGFYPSDIAVEWESNGQPENNYKTTPPVLDSDGSFALYSRLTVDKSRWQEGNVFSCSVMHEALHNHYTQKSLSLSLGK
With B2, in the assay with 2F8-HG-F273A (human) [1], the percentage monomeric at low concentrations stood at 100%. Moreover, the percentage molecules present as monomers with 2F8-HG-F273A (human) [2] was above 80%.

B3: 2F8-HG-L236V (antibody, part only; not given: 2F8 variable domains, not shown: a dimerising Fc or GST)
heavy, part: ASTKGPSVFPLAPCSRSTSESTAALGCLVKDYFPEPVTVSWNSGALTSGVHTFPAVLQSSGLYSLSSVVTVPSSSLGTKTYTCNVDHKPSNTKVDKRVAPEFLGGPSVFLFPPKPKDTLMISRTPEVTCVVVDVSQEDPEVQFNWYVDGVEVHNAKTKPREEQFNSTYRVVSVLTVLHQDWLNGKEYKCKVSNKGLPSSIEKTISKAKGQPREPQVYTLPPSQEEMTKNQVSLTCVVKGFYPSDIAVEWESNGQPENNYKTTPPVLDSDGSFFLYSRLTVDKSRWQEGNVFSCSVMHEALHNHYTQKSLSLSLGK
In the assay with 2F8-HG-L236V (human) [3], B3 gave a percentage monomeric at low concentrations of 100%. In the assay with 2F8-HG-L236V (human) [4], this molecule gave a percentage molecules present as monomers above 80%.

B4: 2F8-HG-F273L (antibody, part only; not given: 2F8 variable domains, not shown: a dimerising Fc or GST)
heavy, part: ASTKGPSVFPLAPCSRSTSESTAALGCLVKDYFPEPVTVSWNSGALTSGVHTFPAVLQSSGLYSLSSVVTVPSSSLGTKTYTCNVDHKPSNTKVDKRVAPEFLGGPSVFLFPPKPKDTLMISRTPEVTCVVVDVSQEDPEVQFNWYVDGVEVHNAKTKPREEQFNSTYRVVSVLTVLHQDWLNGKEYKCKVSNKGLPSSIEKTISKAKGQPREPQVYTLPPSQEEMTKNQVSLTCLVKGFYPSDIAVEWESNGQPENNYKTTPPVLDSDGSFLLYSRLTVDKSRWQEGNVFSCSVMHEALHNHYTQKSLSLSLGK
For the molecule B4, the percentage molecules present as monomers in the assay with 2F8-HG-F273L (human) is above 80%.

B5: 2F8-HG-Y275A (antibody, part only; not given: 2F8 variable domains, not shown: a dimerising Fc or GST)
heavy, part: ASTKGPSVFPLAPCSRSTSESTAALGCLVKDYFPEPVTVSWNSGALTSGVHTFPAVLQSSGLYSLSSVVTVPSSSLGTKTYTCNVDHKPSNTKVDKRVAPEFLGGPSVFLFPPKPKDTLMISRTPEVTCVVVDVSQEDPEVQFNWYVDGVEVHNAKTKPREEQFNSTYRVVSVLTVLHQDWLNGKEYKCKVSNKGLPSSIEKTISKAKGQPREPQVYTLPPSQEEMTKNQVSLTCLVKGFYPSDIAVEWESNGQPENNYKTTPPVLDSDGSFFLASRLTVDKSRWQEGNVFSCSVMHEALHNHYTQKSLSLSLGK
As to B5, the percentage monomeric at low concentrations with 2F8-HG-Y275A (human) [5] was 100%. Further, in the assay with 2F8-HG-Y275A (human) [6], the percentage molecules present as monomers is above 80%.

B6: 2F8-HG-L236A (antibody, part only; not given: 2F8 variable domains, not shown: a dimerising Fc or GST)
heavy, part: ASTKGPSVFPLAPCSRSTSESTAALGCLVKDYFPEPVTVSWNSGALTSGVHTFPAVLQSSGLYSLSSVVTVPSSSLGTKTYTCNVDHKPSNTKVDKRVAPEFLGGPSVFLFPPKPKDTLMISRTPEVTCVVVDVSQEDPEVQFNWYVDGVEVHNAKTKPREEQFNSTYRVVSVLTVLHQDWLNGKEYKCKVSNKGLPSSIEKTISKAKGQPREPQVYTLPPSQEEMTKNQVSLTCAVKGFYPSDIAVEWESNGQPENNYKTTPPVLDSDGSFFLYSRLTVDKSRWQEGNVFSCSVMHEALHNHYTQKSLSLSLGK
B6 returned a percentage molecules present as monomers in the assay with 2F8-HG-L236A (human) above 80%.

The values above are taken from US20100325744A1.
